Tests used:
Assay type in all cases: cell-based
[1] = target: T1, activated form of the G-protein Gαi1 (Gαi1(Q204L)) (Homo sapiens, UniProt P63096, Q204L); assay: Polarization microscopy of probe in HEK293 cells, with or without cotransfected constitutively activated Gαi1(Q204L); conditions: cotransfection of Gαi1(Q204L) plasmid, excitation polarization resolved single-photon laser scanning confocal microscopy
T1 construct: expressed in transfected cells; host or cells: HEK293
Text: A protein (SEQ ID NO:5) that includes as an anchoring moiety a fragment of the protein h-Ras, a flexible peptide linker (amino acid sequence GSGGSGG (SEQ ID NO:1)), a monomeric enhanced green fluorescent protein (meGFP) as a fluorescent moiety, and an affinity binding peptide KB1753 known to bind the activated form of the G-protein Gαi1 (Johnston C A & al., Structure. 2005 Jul. 1; 13(7):1069-80), was encoded into a DNA sequence (SEQ ID NO:6) and cloned into a mammalian expression vector (pcDNA3.1(+)) under the control of the cytomegalovirus (CMV) promoter. The resulting DNA encoding the probe of invention was transfected into HEK293 cells either alone, or along with DNA encoding the target protein of the probe.
Prior to microscopy observations, mammalian cells (HEK293) were cultured at 37° C. under an atmosphere of 95% air, 5% CO2, in Dulbecco's modified Eagle's medium with Glutamax I and high glucose (Life Technologies), supplemented with 10% fetal bovine serum. […]
The cells were observed by excitation polarization resolved single-photon laser scanning confocal microscopy, by excitation polarization resolved two-photon laser scanning microscopy, by excitation polarization resolved single-photon wide-field fluorescence microscopy, and by fluorescence polarization resolved single-photon laser scanning confocal microscopy.
(§1) In excitation polarization resolved single-photon laser scanning confocal microscopy, the cells (in the multi-well cover slip) were observed using a single-photon laser scanning confocal microscope Olympus FV1200, modified for excitation-polarization resolved microscopy. […] Fluorescence of wavelengths in the range of 510-610 nm was separated from the excitation light by a long-pass dichroic mirror (DM405/488, Olympus, Japan), diffractive grating, and an adjustable slit, and detected by a photomultiplier. […]
(§2) The resulting images were deconvolved and quantitatively analyzed by following published procedures (Bondar A & al., Communications Biology. 2021 Feb. 12; 4(1):1-2.) that rely on publicly available software tools. […]

[2] = target: T2, activated form of Gαi1 (Homo sapiens, UniProt P63096); assay: Polarization microscopy of probe in HEK293 cells, Gαi1 activated through the α2-adrenergic receptor by norepinephrine; conditions: HEK293 cells cotransfected with Gαi1, Gβ1, Gγ2 and α2-adrenergic receptor; 10 μM norepinephrine; excitation polarization resolved single-photon confocal microscopy
T2 construct: expressed in transfected cells; host or cells: HEK293
Method: (§3) Prior to microscopy observations, mammalian cells (HEK293) were cultured at 37° C. under an atmosphere of 95% air, 5% CO2, in Dulbecco's modified Eagle's medium with Glutamax I and high glucose (Life Technologies), supplemented with 10% fetal bovine serum. Cells were plated on 8-chamber microscopy slides (p-Slides, Ibidi GmbH, Germany). Transfections were carried out using 0.2 μg of plasmid DNA and Lipofectamine 2000 (Life Technologies), according to the protocol of the manufacturer. In cotransfections, 0.2 μg of each of the plasmids were used. Microscopy experiments were carried out 48 h after transfection. […]
as §1, §2

[3] = target: T3, GβGγ dimer (Homo sapiens, UniProt P59768+P62873); assay: Polarization microscopy of probe in HEK293 cells, with or without cotransfected GβGγ dimer; conditions: cotransfection of plasmids encoding the, excitation polarization resolved single-photon confocal microscopy
T3 construct: expressed in transfected cells; host or cells: HEK293
Method: as §3, §1, §2

T1 sequence (P63096 whole entry Q204L): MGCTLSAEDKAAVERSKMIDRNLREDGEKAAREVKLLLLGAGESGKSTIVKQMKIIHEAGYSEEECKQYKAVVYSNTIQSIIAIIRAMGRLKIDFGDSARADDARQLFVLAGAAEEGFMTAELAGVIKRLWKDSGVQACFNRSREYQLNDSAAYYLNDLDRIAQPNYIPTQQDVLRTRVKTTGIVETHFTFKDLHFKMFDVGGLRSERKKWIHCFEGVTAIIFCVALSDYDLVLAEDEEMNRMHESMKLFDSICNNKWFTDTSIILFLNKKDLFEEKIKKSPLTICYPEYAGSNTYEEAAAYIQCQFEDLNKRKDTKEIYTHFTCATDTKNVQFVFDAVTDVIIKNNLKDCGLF
T2 sequence (P63096 whole entry): as the sequence (P63096 whole entry Q204L) above, with L204Q counted along it
T3 sequence (P62873 2-340 limits assumed): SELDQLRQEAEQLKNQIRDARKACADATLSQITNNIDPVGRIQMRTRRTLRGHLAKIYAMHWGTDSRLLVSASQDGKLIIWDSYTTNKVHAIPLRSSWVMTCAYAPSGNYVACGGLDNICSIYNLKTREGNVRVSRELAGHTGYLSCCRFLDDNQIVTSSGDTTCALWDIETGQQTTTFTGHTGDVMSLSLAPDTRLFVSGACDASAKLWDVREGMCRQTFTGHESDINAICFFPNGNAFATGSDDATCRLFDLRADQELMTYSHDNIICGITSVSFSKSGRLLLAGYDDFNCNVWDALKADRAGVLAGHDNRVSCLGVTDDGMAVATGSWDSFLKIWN
T3 sequence (P59768 2-68 limits assumed): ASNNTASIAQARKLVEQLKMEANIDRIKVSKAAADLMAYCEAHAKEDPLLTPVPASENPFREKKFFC

B1: KB1753-mScarlet-GSGGSGG-hRas (protein)
chain: MSSRGYYHGIWVGEEGRLSRVSKGEAVIKEFMRFKVHMEGSMNGHEFEIEGEGEGRPYEGTQTAKLKVTKGGPLPFSWDILSPQFMYGSRAFTKHPADIPDYYKQSFPEGFKWERVMNFEDGGAVTVTQDTSLEDGTLIYKVKLRGTNFPPDGPVMQKKTMGWEASTERLYPEDGVLKGDIKMALRLKDGGRYLADFKTTYKAKKPVQMPGAYNVDRKLDITSHNEDYTVVEQYERSEGRHSTGGMDELYKGSGGSGGCMSCKCVLS
modifications: KB1753-mScarlet-GSGGSGG-hRas
notes: Protein probe: hRas fragment anchor, GSGGSGG linker, mScarlet, peptide KB1753
linear dichroism of the fluorescent moiety of the probe in presence of its target molecule compared with absence [1]: statistically significantly higher
linear dichroism of the fluorescent moiety of the probe in presence of activated Gαi1 compared with absence [2]: statistically significantly higher

B2: KB1753-SNAP-GSGGSGG-hRas (protein)
chain: MSSRGYYHGIWVGEEGRLSRDKDCEMKRTTLDSPLGKLELSGCEQGLHRIIFLGKGTSAADAVEVPAPAAVLGGPEPLMQATAWLNAYFHQPEAIEEFPVPALHHPVFQQESFTRQVLWKLLKVVKFGEVISYSHLAALAGNPAATAAVKTALSGNPVPILIPCHRVVQGDLDVGGYEGGLAVKEWLLAHEGHRLGKPGLGSGGSGGCMSCKCVLS
modifications: SNAP labelled with SNAP Cell 430; KB1753-SNAP-GSGGSGG-hRas
notes: Protein probe: hRas fragment anchor, GSGGSGG linker, SNAP fluorogenic protein (labelled with SNAP Cell 430), peptide KB1753
linear dichroism of the fluorescent moiety of the probe in presence of its target molecule compared with absence [1]: statistically significantly higher

B3: KB1753-HALO-GSGGSGG-hRas (protein)
chain: MSSRGYYHGIWVGEEGRLSRAEIGTGFPFDPHYVEVLGERMHYVDVGPRDGTPVLFLHGNPTSSYVWRNIIPHVAPTHRCIAPDLIGMGKSDKPDLGYFFDDHVRFMDAFIEALGLEEVVLVIHDWGSALGFHWAKRNPERVKGIAFMEFIRPIPTWDEWPEFARETFQAFRTTDVGRKLIIDQNVFIEGTLPMGVVRPLTEVEMDHYREPFLNPVDREPLWRFPNELPIAGEPANIVALVEEYMDWLHQSPVPKLLFWGTPGVLIPPAEAARLAKSLPNCKAVDIGPGLNLLQEDNPDLIGSEIARWLSTLEISGGSGGSGGCMSCKCVLS
modifications: HALO labelled with JF-549; KB1753-HALO-GSGGSGG-hRas
notes: Protein probe: hRas fragment anchor, GSGGSGG linker, HALO fluorogenic protein (labelled with JF-549), peptide KB1753
linear dichroism of the fluorescent moiety of the probe in presence of its target molecule compared with absence [1]: statistically significantly lower
linear dichroism of the fluorescent moiety of the probe in presence of activated Gαi1 compared with absence [2]: statistically significantly lower

B4: GAP43-SSGSSGTG-HALO-GRK2ct (protein)
chain: MLCCMRRTKQVEKNDEDQNSSGSSGTGAEIGTGFPFDPHYVEVLGERMHYVDVGPRDGTPVLFLHGNPTSSYVWRNIIPHVAPTHRCIAPDLIGMGKSDKPDLGYFFDDHVRFMDAFIEALGLEEVVLVIHDWGSALGFHWAKRNPERVKGIAFMEFIRPIPTWDEWPEFARETFQAFRTTDVGRKLIIDQNVFIEGTLPMGVVRPLTEVEMDHYREPFLNPVDREPLWRFPNELPIAGEPANIVALVEEYMDWLHQSPVPKLLFWGTPGVLIPPAEAARLAKSLPNCKAVDIGPGLNLLQEDNPDLIGSEIARWLSTLEISGGSSRNFPLVISERWQQEVAETVYEAVNADTDKIEARKRAKNKQLGHEEDYALGRDCIVHGYMLKLGNPFLTQWQRRYFYLFPNRLEWRGEGESRQSLLTMEQIVSVEETQIKDKKCILLRIKGGKQFVLQCESDPEFVQWKKELTETFMEAQRLLRRAPKFLNKSRSAVVELSKPPLCHRNSNGLGSRG
modifications: HALO labelled with JF-549; GAP43-SSGSSGTG-HALO-GRK2ct
notes: Protein probe: GAP43 fragment anchor, SSGSSGTG linker, HALO (labelled with JF-549), GRK2 fragment with PH domain
linear dichroism of the fluorescent moiety of the probe in presence of its target molecule compared with absence [3]: statistically significantly higher

Source: patent US12618828B2, “Probe and method for detecting membrane-associated molecules in living cells” (priority 2021, dated 2026)
